We go through 1 molecule from PMC2852676 (Current Biology, 2010).

This assay has as its target T1, Smc3 hinge domain fusion protein, wild type (Smc3H) (yeast, UniProt P47037 495-705).
T1 sequence: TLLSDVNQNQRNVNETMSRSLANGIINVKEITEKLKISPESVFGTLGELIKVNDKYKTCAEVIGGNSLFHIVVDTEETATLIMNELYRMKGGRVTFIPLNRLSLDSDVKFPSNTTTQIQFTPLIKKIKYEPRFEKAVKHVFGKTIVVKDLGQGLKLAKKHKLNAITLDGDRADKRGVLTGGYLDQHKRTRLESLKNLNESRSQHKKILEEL
Kind of assay: SEC.

B1: Smc1 hinge domain fusion protein, wild type (Smc1H) (domain or fragment)
chain: SANQRETMKERKLRENIAMLKRFFPGVKGLVHDLCHPKKEKYGLAVSTILGKNFDSVIVENLTVAQECIAFLKKQRAGTASFIPLDTIETELPTLSLPDSQDYILSINAIDYEPEYEKAMQYVCGDSIICNTLNIAKDLKWKKGIRGKLVTIEGALIHKAGLMTGGISGDANNRWDKEE
In the case of B1, the binding result is “binds”.
